Each block holds one molecule with its values, some of them ahead of it. Ends that are not written are not given here.
Key:
[1] = target: engineered monoclonal Fab-κ (0.171 mg/mL in clarified CHO-K1 cell culture harvest); assay: capture from CHO-K1 CCCF with engineered Fab 0.171 mg/mL, elution pH 2.5; yield by anti-human Fab ELISA
human polyclonal Fab [2] = assay: Dynamic binding of human polyclonal Fab on peptide-Toyopearl resins (chromatograms); conditions: residence time 2 min; for amount of human Fab that flowed through: human Fab at 2 mg/mL in PBS; for binding of human polyclonal Fab (chromatogram): human polyclonal Fab at 2 mg/mL in PBS
Description: (§1) Dynamic binding of human Fab-κ and Fab-λ in non-competitive condition. The peptides listed in Table 3 were synthesized on Toyopearl resins as described herein, and the resulting adsorbents were packed into 0.1 mL (30×2.1 mm) columns, installed on a Waters Alliance 2695 HPLC system (Milford, MA), and equilibrated with PBS at pH 7.4. […] The subsequent chromatographic steps of washing with PBS, elution with 0.2 M acetate buffer pH 4, regeneration with 0.1 M glycine buffer pH 2.5, and equilibration with PBS were all performed at 348 cm/h. The dynamic binding protocol was repeated with 50 μL of human Fab-κ and Fab-λ, both at 1 mg/mL in PBS. The column effluent was continuously monitored at 280 nm by UV spectrophotometry. The yield was determined by peak area analysis and determined by taking the area of the elution peak divided by the flow-through, elution, and regeneration peak areas. Finally, the dynamic binding capacity at 10% flowthrough of […]-Toyopearl resin was measured via continuous loading of a solution of human polyclonal Fab at either 1, 2, or 5 mg/mL in PBS at the linear velocity of either 173, 87, or 35 cm/h, corresponding to the residence times (RT) of 1, 2, and 5 min, until reaching saturation of the adsorbent. The dynamic binding capacity of Protein L-agarose resin was measured via continuous loading of human polyclonal Fab at 1 mg/mL in PBS at the linear velocity of either 173 or 87 cm/h, corresponding to RT of 1 and 2 min, until reaching saturation of the adsorbent.
Secondary selection of Fab-binding peptide ligands via dynamic binding studies. The candidate ligands selected from library screening were conjugated to Toyopearl AF-Amino-650M resin and evaluated via Fab binding studies in dynamic mode. Toyopearl resin was selected for chromatographic evaluation owing to its low non-specific protein adsorption, low compressibility, and strong chemical stability. The residence time of 2 minutes (RT: 2 min) was adopted to mimic the loading conditions utilized in industrial bioprocessing. A solution of human polyclonal Fab at 2 mg/mL in PBS was adopted as feedstock to discern ligands that either bind all Fab or target selectively Fab-κ or Fab-λ; accordingly, the top ligands by elution peak area were subjected to further analysis with either pure k or λ subtypes. Finally, in line with library screening, A 0.2 M acetate buffer was utilized at pH 4 for Fab elution; this value of pH is sufficient to ensure high yield without compromising the integrity and bioactivity of the product. This represents a distinct advantage of peptide ligands with moderate affinity compared to high-affinity protein ligands; for comparison, Protein L as well as KappaSelect and LambdaFabSelect resins require elution at pH 2.5-3.

monoclonal Fab-κ = conditions: cited from earlier work
human Fab-κ = assay: Dynamic binding of human Fab-κ in non-competitive condition on peptide-Toyopearl resins; conditions: κ and λ Fabs, 1 mg/mL in PBS, residence time 2 min
Description: as §1, with “The dynamic binding capacity of Protein L-agarose resin was measured via continuous loading of human polyclonal Fab at 1 mg/mL in PBS at the linear velocity of either 173 or 87 cm/h, corresponding to RT of 1 and 2 min, until reaching saturation of the adsorbent.” left out

human polyclonal Fab [3] = assay: Dynamic binding capacity at 10% breakthrough with human polyclonal Fab in PBS; conditions: RT of 2 min, range
Description: as §1, with “The dynamic binding capacity of Protein L-agarose resin was measured via continuous loading of human polyclonal Fab at 1 mg/mL in PBS at the linear velocity of either 173 or 87 cm/h, corresponding to RT of 1 and 2 min, until reaching saturation of the adsorbent.” left out

scFv13R4 = assay: Purification of scFv from P. pastoris perfusate; conditions: scFv eluted at 0.1 M glycine pH 2.5, not at pH 4
Description: Preparation of spiked feedstock. A wild-type X33 P. pastoris strain was obtained from ThermoFisher Scientific as an agar stab. This stab was used to create freezer stocks, which were stored at −80° C. A vial from the freezer stock was thawed, plated on a yeast extract peptone dextrose (YPD) agar plate, and incubated at 30° C. A single colony was then used to inoculate a 1 L vented shake flask containing 100 mL of Buffered Glycerol-complex Medium (BMGY), and the flask was incubated at 250 rpm at 30° C. A 300 mL bioreactor connected to a perfusion device was prepared and inoculated with cells harvested from the shake flask. After an initial growth phase, the perfusion system was activated, and fluid was continuously extracted from the bioreactor at a rate of 1.5 vessel volumes per day (VVD) while retaining the cells. Simultaneously to activating the perfusion system, a 2% v/v methanol feedstock containing IgG at 0.5 mg/mL began to be fed continuously into the bioreactor at 1.5 VVD. […]
Purification of scFv from P. pastoris perfusate. […] Washing, elution, and regeneration steps were all performed at 0.5 mL/min (231 cm/h), while the effluent was continuously monitored by UV spectrophotometry at 280 nm. […] The collected fractions were analyzed via non-reducing SDS-PAGE analysis after concentration and diafiltration to PBS at pH 7.4 by a 10 kDa MWCO spin concentrator.

human Fab-κ (human) [4] = assay: equilibrium adsorption isotherm on resin, Langmuir fit
[5] = target: human polyclonal Fab (human); assay: as above
Certolizumab pegol [6] = assay: capture from CHO-S CCCF spiked with Certolizumab 1 mg/mL, elution pH 4
[7] = target: human polyclonal Fab (human); assay: dynamic binding capacity at 10% breakthrough, Fab 1 mg/mL in PBS, residence time 1 min
[8] = target: human polyclonal Fab (human); assay: dynamic binding capacity at 10% breakthrough, Fab 1 mg/mL in PBS, residence time 2 min
[9] = target: human polyclonal Fab (human); assay: dynamic binding capacity at 10% breakthrough, Fab 1 mg/mL in PBS, residence time 5 min
[10] = target: human polyclonal Fab (human); assay: dynamic binding capacity at 10% breakthrough, Fab 2 mg/mL in PBS, residence time 2 min
[11] = target: human polyclonal Fab (human); assay: dynamic binding capacity at 10% breakthrough, Fab 5 mg/mL in PBS, residence time 1 min
[12] = target: human polyclonal Fab (human); assay: dynamic binding capacity at 10% breakthrough, Fab 5 mg/mL in PBS, residence time 2 min
human Fab-κ (human) [13] = assay: dynamic binding on peptide-Toyopearl column, Fab 1 mg/mL in PBS, residence time 2 min
human Fab-λ (human) [14] = assay: as above
[15] = target: human polyclonal IgG (human); assay: capture of IgG 0.5 mg/mL from P. pastoris perfusate, elution pH 4; yield by Protein G HPLC
[16] = target: engineered monoclonal Fab-κ (0.171 mg/mL in clarified CHO-K1 cell culture harvest); assay: capture from CHO-K1 CCCF with engineered Fab 0.171 mg/mL, elution pH 4; yield by anti-human Fab ELISA
[17] = target: human polyclonal Fab (human); assay: capture from null CHO-S CCCF spiked with human Fab 1 mg/mL, elution pH 4; yield by anti-human Fab ELISA
Certolizumab pegol [18] = assay: capture from null CHO-S CCCF spiked with Certolizumab 1 mg/mL, elution pH 4; yield by anti-human Fab ELISA
[19] = target: human polyclonal IgG (human); assay: dynamic binding capacity at 10% breakthrough, P. pastoris perfusate with IgG 0.5 mg/mL, residence time 2 min
human Fab-κ (human) [20] = assay: dynamic binding on peptide-Toyopearl column, Fab 1 mg/mL in PBS, residence time 2 min, elution pH 4; yield = elution peak area over total peak area
human Fab-λ (human) [21] = assay: as above
[22] = target: human polyclonal Fab (human); assay: dynamic binding on peptide-Toyopearl column, human Fab 2 mg/mL in PBS, residence time 2 min

amount of human Fab that flowed through (human polyclonal Fab [2]): 61%
Molecule: WHYNWQDVSDRQ [A5, variant peptide ligand developed by Nascimento et al]

fraction of the loaded Fab bound (human Fab-κ): approximately half
Molecule: IIHRRAFWWFPN

Kd (human Fab-κ (human) [4]): 5.82 µM
Qmax (mg per mL of resin) (human Fab-κ (human) [4]): 11.9
Kd [5]: 5.14 µM
Qmax (mg per mL of resin) [5]: 13.5
Fab-κ Yield (human Fab-κ (human) [20]): 55%
Fab-λ Yield (human Fab-λ (human) [21]): 66%
B4: … (peptide)
peptide: IIHRRAFWWFPN
modifications: also: C-terminus attached to Toyopearl AF-Amino-650M resin or ChemMatrix bead

Fab-κ Yield (human Fab-κ (human) [20]): 40%
Fab-λ Yield (human Fab-λ (human) [21]): 53%
B5: … (peptide)
peptide: RWTIWPPNWHPP
modifications: also: C-terminus attached to Toyopearl AF-Amino-650M resin or ChemMatrix bead

Further lines, the molecule ahead of its results:

Molecule: Protein L-agarose resin
Yield [1]: 91%

Molecule: WIPNSEFEHERTK [B1, peptide ligand for monoclonal Fab-κ identified by Nascimento et al]
binding of human polyclonal Fab (chromatogram) (human polyclonal Fab [2]): failed to bind
affinity for two other monoclonal Fabs (monoclonal Fab-κ): little-to-no affinity

Molecule: FRWNFHRNTFFP
fraction of the loaded Fab bound (human Fab-κ): approximately 90%
binding of human polyclonal Fab (chromatogram) (human polyclonal Fab [2]): very low flow-through peak area
DBC10% (human polyclonal Fab [3]): 6 to 16 mg/mL
relative affinity for scFv vs Fab (scFv13R4): higher affinity for scFv than Fab

Molecule: HQNHHSTFRWEIY [C7, variant peptide ligand developed by Nascimento et al]
amount of human Fab that flowed through (human polyclonal Fab [2]): 79%

Molecule: Protein L-Sepharose resin
Kd (human Fab-κ (human) [4]): 0.0309 µM
Qmax (mg per mL of resin) (human Fab-κ (human) [4]): 20.7

B1: … (peptide)
peptide: FRWNFHRNTFFP
modifications: also: C-terminus attached to Toyopearl AF-Amino-650M resin or ChemMatrix bead
Kd (human Fab-κ (human) [4]): 2.05 µM
Qmax (mg per mL of resin) (human Fab-κ (human) [4]): 19
Kd [5]: 2.16 µM
Qmax (mg per mL of resin) [5]: 20.4
Yield (Certolizumab pegol [6]): 96.5%
DBC10% (mg Fab per mL of resin) [7]: 4.5
DBC10% (mg Fab per mL of resin) [8]: 6
DBC10% (mg Fab per mL of resin) [9]: 7
DBC10% (mg Fab per mL of resin) [10]: 10.9
DBC10% (mg Fab per mL of resin) [11]: 15.5
DBC10% (mg Fab per mL of resin) [12]: 16.5
percent of the load bound (human Fab-κ (human) [13]): 90%
percent of the load bound (human Fab-λ (human) [14]): 90%
Yield [15]: 33%
Yield [16]: 93.3%
Yield [17]: 94.1%
Yield (Certolizumab pegol [18]): 96%
DBC10% (mg IgG per mL of resin) [19]: 13.4
DBC10% (mg IgG per mL resin) [19]: 13.4
Fab-κ Yield (human Fab-κ (human) [20]): 89%
Fab-λ Yield (human Fab-λ (human) [21]): 91%

B2: … (peptide)
peptide: WHYNWQDVSDRQ
modifications: also: attached to Toyopearl resin, site not given here
percent of human Fab that flowed through (unbound) [22]: 61%

B3: … (peptide)
peptide: HQNHHSTFRWEIY
modifications: also: attached to Toyopearl resin, site not given here
percent of human Fab that flowed through (unbound) [22]: 79%

B6: … (peptide)
peptide: IRHHNIWFNTIA
modifications: also: C-terminus attached to Toyopearl AF-Amino-650M resin or ChemMatrix bead
Fab-κ Yield (human Fab-κ (human) [20]): 42%
Fab-λ Yield (human Fab-λ (human) [21]): 42%

Source: patent US20260062442A1, “COMPOSITIONS AND METHODS FOR PURIFYING ANTIGEN-BINDING ANTIBODY FRAGMENTS USING PEPTIDE LIGANDS” (North Carolina State University, priority 2022, published 2026)
